# Reference: patent US20240010720A1 (IOMX THERAPEUTICS, published 2024)
# Residue numbers refer to the chain shown, from its start.
# B1: A-011 (scFv format) (scFv, V domains shown)
# VH: QVQLVESGGGVVQPGRSLRLSCAASGFTFSSYAMHWVRQAPGKGLEWVAVISYDGSNKYYADSVKGRFTISRDNSKNTLYLQMNSLRAEDTAVYYCAEGGALNYYGMDVWGQGTTVTVSS
# VL: SSELTQDPGVSVALGQTVRITCQGDSLRHFYATWYQQKPGQAPILVIYGKNNRPSGIPDRFSGSSSEDTASLTITGAQAEDEADYYCQSRDPRNNHLIFGGGTKLIVL
# notes: scFv
# B2: A-022 (scFv format) (scFv, V domains shown)
# VH: EVQLLESGPGLVKPSQTLSLTCTVSGGSISSGGYYWSWIRQHPGKGLEWIGYIYYSGSTYYNPSLKSRVTISVDTSKNQFSLKLSSVTAADTAVYYCARASRSTDYYFDYWGQGTLVTVSS
# VL: QPGLTQPPSMSYGLGQTATLTCTGNRNNIGDQGAAWLQQHQGHPPKLLSYRNNNGPSGISERLSASRSGNTASLTISGLQPEDEADYYCSAWDSSLRAWVFGGGTKLTVL
# notes: scFv
# B3: A-009 (scFv format) (scFv, V domains shown)
# VH: QVQLVQSGAEVKKPGSSVKVSCKASGGTFSSYAISWVRQAPGQGLEWMGGIIPIFGTANYAQKFQGRVTITADESTSTAYMELSSLRSEDTAVYYCARGRGFGELYFDYWGQGTLVTVSS
# VL: ETTLTQSPATLSVSPGERATLSCRASQGVRSNIAWYQQKPGQAPRLLIYDSSTRATGIPARFSGSGSGTEFTLTISSLQSEDFAVYSCQQYKNWPRTFGQGTKVEIK
# notes: scFv
# B4: A-025 (scFv format) (scFv, V domains shown)
# VH: B3 VH with S84T, R100G, G101W, F102L, G103R, E104Q, L105N, Y106W, Y109P
# VL: SSELTQDPAVSVALGQTVRITCQGDSLRSYYASWYQQKPGQAPVLVIYGKNNRPSGIPDRFSGSSSGNTASLTITGAQAEDEADYYCNSRDSSGNHPRVFGGGTKLTVL
# notes: scFv
# B5: A-002 (scFv format) (scFv, V domains shown)
# VH: EVQLVESGGGLIQPGGSLRLSCAASGFTVSSNYMSWVRQAPGKGLEWVSVIYSGGSTYYADSVKGRFTISRDNSKNTLYLQMNSLRAEDTAVYYCARGNPYYYGDLQVNFDYWGQGTLVTVSS
# VL: QAVVTQEPSLTVSPGGTVTPTCGSSTGAVTSGNLPNWFQQKPGQAPRALIYSTSNKHSWTPARISGSLLGGKAALTLSGVQPEDEAEYYCLLYYGGAWVFGGGTKLTVL
# notes: scFv
# B6: A-012 (scFv format) (scFv, V domains shown)
# VH: B5 VH with V5L, A24V
# VL: B5 VL with P20L, G23A, N33Y, L34Y, I64F
# notes: scFv
# B7: A-013 (scFv format) (scFv, V domains shown)
# VH: B5 VH
# VL: B5 VL with P20L, G23A, G32A, N33Y, L34Y, I64F, E87D
# notes: scFv
# B8: A-005 (scFv format) (scFv, V domains shown)
# VH: B5 VH
# VL: B5 VL with G16E, P20L, G23A, N33Y, L34Y, K41R, H57D, I64F
# notes: scFv
# B9: A-006 (scFv format) (scFv, V domains shown)
# VH: B5 VH
# VL: B5 VL with P20L, G23A, N33Y, L34Y, A48P, I64F, E83D, A97D
# notes: scFv
# B10: A-016 (scFv format) (scFv, V domains shown)
# VH: QVQLQESGAEVKKPGASVKVSCKASGYTFTGYYMHWVRQAPGQGLEWMGGIIPIFGTANYAQKFQGRVTITADESTSTAYMELSSLRSEDTAVYYCAGAGMELTRSGAYYYYGMDVWGQGTTVTVSS
# VL: QSALTQPASVSGSPGQSITISCTGTSSDIGGYTFVSWYQQHPGKAPKVMIHDVNNRPSGISNRFSGSKSGNTASLTISGLQAEDEADYYCSSVTSTNTYVFGTGTKVTVL
# notes: scFv
# B11: A-010 (scFv format) (scFv, V domains shown)
# VH: QVQLVQSGAEVKKPGASVKVSCKASGYTFTSYGISWVRQAPGQGLEWMGWISAYNGNTNYAQKLQGRVTMTTDTSTSTAYMELRSLRSDDTAVYYCARVPAWSGQFDYWGQGTLVTVSS
# VL: QSALTQPASVSGSPGQSITISCTGSSSDVGGYNYVSWYQQYPGKAPKLMIYDVRSRPSGVSNRFSGSKSGNTASLTISGLQAEDEADYYCTSYTSSNTLVIFGGGTKVTVL
# notes: scFv
# B12: A-024 (scFv format) (scFv, V domains shown)
# VH: QMQLVQSGAEVKKPGSSVKVSCKASGGTFSSYAISWVRQAPGQGLEWMGWISAYNGNTNYAQKLQGRVTMTTDTSTSTAYMELRSLRSDDTAVYYCASLGSYGYTGAFDIWGQGTMATVSS
# VL: B11 VL with S25T, Y41H, D52E, R54S, S55N, T91S, N97S, I101V, V108L
# B13: A-023 (scFv format) (scFv, V domains shown)
# VH: QVQLVQSGAEVKKPGSSVKVSCKASGGTFSSYAISWVRQAPGQGLEWMGGIIPIFGTANYAQKFQGRVTITADESTSTAYMELSSLRSEDTAVYYCARPKYSSGWFYYYGMDVWGQGTTVTVSS
# VL: QSVLTQPPSVSAAPGQKVTISCSGSSSNIGNNYVSWYQQLPGTAPKLLIYDNNKRPSGIPDRFSGSKSGTSATLGITGLQTGDEADYYCGTWDSSLSVVFGGGTKLTVL
# notes: scFv
# B14: A-008 (scFv format) (scFv, V domains shown)
# VH: QLQLQESGPGLVKPSETLSLTCTVSGGSISSSGYYWGWIRQPPGKGLEWIGSIYYSGSTYYNPSLKSRVTISVDTSKNQFSLKLSSVTAADTAVYYCARHRVRFGEFDAFDIWGQGTMVTVSS
# VL: QAVLTQPPSVSGAPGERVTLSCTGTSSNVGADFDVHWYQQFPGTAPRLLIFGSDNRPSGVPDRFSGSKSGTSASLAITGLQVEDEADYYCQAYDVRLSGWVFGGGTKLTVL
# notes: scFv
# B15: A-007 (scFv format) (scFv, V domains shown)
# VH: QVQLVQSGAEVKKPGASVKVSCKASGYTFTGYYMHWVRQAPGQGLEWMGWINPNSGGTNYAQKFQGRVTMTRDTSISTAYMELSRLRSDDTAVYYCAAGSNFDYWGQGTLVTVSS
# VL: QSALTQPASVSGSPGQSITIACTGSSSDIGSFSYVSWYQQRPGKAPTLIIYGVNNRPLGVSRRFSGSKSGNTASLSISGLQAEDEADYYCSSYTRRSTVIFGGGTKLTVL
# notes: scFv
# B16: A-001 (scFv format) (scFv, V domains shown)
# VH: EVQLVESGGGLVKPGGSLRLSCAASGFTFSSYSMNWVRQAPGKGLEWVSSISSSSSYIYYADSVKGRFTISRDNAKNSLYLQMNSLRAEDTAVYYCVRSIIVQALGITSVFDIWGQGTMVTVSS
# VL: AIRLTQSPSSLSASVGDRVTISCRASQIISNHLNWYQQKPGKAPKLLIYAASRLQTGVPSRFSGSGSETDYTLTISSLQPEDFATYYCQQSYSNPRTFGHGTKVEIK
# notes: scFv
# B17: A-015 (scFv format) (scFv, V domains shown)
# VH: not shown
# VL: QPVLTQSPSASASLGASVKLTCTLSSGHTNYAIAWRQQQPGKAPRYLMLLNSDGSHTRGGGIPDRFSGSSSGAERYLTISSLQSEDEADYYCMIWHNNAWVFGGGTKLAVL
# notes: scFv
# Target: T1, Streptavidin (UniProt P22629 37-163, limits assumed)
# T1 construct: also called negative antigen; irrelevant antigen
# Experiment: ELISA, scFv
# T1 sequence (P22629 37-163 limits assumed): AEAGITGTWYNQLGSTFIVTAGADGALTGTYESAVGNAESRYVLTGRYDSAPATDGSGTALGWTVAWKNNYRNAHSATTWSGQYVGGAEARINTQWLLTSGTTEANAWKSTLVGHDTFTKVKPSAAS
row,Binder,binding result
1,B1,no binding (tested: <0.025 or <0.05 RFU)
2,B2,no binding (tested: <0.025 or <0.05 RFU)
3,B3,no binding (tested: <0.025 or <0.05 RFU)
4,B4,no binding (tested: <0.025 or <0.05 RFU)
5,B5,no binding (tested: <0.025 or <0.05 RFU)
6,B6,no binding (tested: <0.025 or <0.05 RFU)
7,B7,no binding (tested: <0.025 or <0.05 RFU)
8,B8,no binding (tested: <0.025 or <0.05 RFU)
9,B9,no binding (tested: <0.025 or <0.05 RFU)
10,B10,no binding (tested: <0.025 or <0.05 RFU)
11,B11,no binding (tested: <0.025 or <0.05 RFU)
12,B12,no binding (tested: <0.025 or <0.05 RFU)
13,B13,no binding (tested: <0.025 or <0.05 RFU)
14,B14,no binding (tested: <0.025 or <0.05 RFU)
15,B15,no binding (tested: <0.025 or <0.05 RFU)
16,B16,no binding (tested: <0.025 or <0.05 RFU)
17,B17,no binding (tested: <0.025 or <0.05 RFU)
